Variants at the floor of the assay were thinned out.
B1: TPR 5TU (parent)
chain: GGAUCUUCUCGAUCUAACAAAAAAGACAAAUCUGCCACAAAGCUUGAGAGCAUCUUCGGAUGCAGAGGCGGCAGCCUUCGGUGGCGCGAUAGCGCCAACGUUCUCAACUAUGACACGCAAAACGCGUGCUCCGUUGAAUGGAGUUUAUCAUG

Variants of: B1
Assay: polymerase ribozyme fitness, log enrichment relative to wild type (log ratio); higher = more active; in vitro selection for triplet polymerase activity
Outline: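 The heterodimeric triplet polymerase ribozyme's subunits were each mutagenized into PCR-built libraries and transcribed. Every library was selected once, in triplicate, by annealing with a biotinylated primer, the partner subunit and triplets, incubating frozen at −7 °C, gel-excising extended constructs, capturing on streptavidin beads and running RT-PCR. Input and output libraries were Illumina-sequenced, with genotypes kept only at ≥10 input reads and ≥1 read per output. Fitness, from inverse-variance-weighted replicate averages, is the base-2 logarithm of genotype enrichment over wild-type enrichment.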

| Variant | polymerase ribozyme fitness (log ratio) |
| --- | --- |
| U33G A40G C54U U55G A98G A147U A150C | ≤ -4.2 |
| G74U G88A A119U C125U | -3.95 |
| A29C G58U | -4.16 |
| A73G C85U G88A A119U U134A G140C | ≤ -4.2 |
| C87U U145A | 0.0527 |
| A40C G42U U55A C85A | ≤ -4.2 |
| U53A C93A C99U G141U | ≤ -4.2 |
| U4A G83U C95G G124U U148C | ≤ -4.2 |
| A12C U139A | ≤ -4.2 |
| A40C A89U | 0.433 |
| U15A A20C G59A A60U C93G C105U G133U | ≤ -4.2 |
| G50C G81C C93G C95U A110C | ≤ -4.2 |
| A3G A23C C75A G88A C99G C108U G143C | ≤ -4.2 |
| U7C G92C | -2.73 |
| G58C C118A | -0.0404 |
| A138C U139A | -3.78 |
| C36G C99G C132U U146C | -4.06 |
| A29U C96U A106C U127G | ≤ -4.2 |
| U13G G65C G83A | ≤ -4.2 |
| C76A C99A | -4.05 |
| A3C G50U | -1.07 |

| Variant | polymerase ribozyme fitness (log ratio) |
| --- | --- |
| U61A G86A A122G | -2.67 |
| A16U U31C C38U C114U | -3.95 |
| C35U A49C U53G C75G G92A A119U A120G G133U A138C | ≤ -4.2 |
| G84A C96A A119U | -1.11 |
| C18G C43A A52C G71A A91U C95G U146C | ≤ -4.2 |
| C18U C85U C105U | 0.286 |
| C75U G80C A91G A97U A122G | ≤ -4.2 |
| C103G U145G | -1.87 |
| A37U U134G | -2.86 |
| U45G C51U C95A C125U | -3.64 |
| A60U A89C A142U | -2.09 |
| G84U A120G | -2.16 |
| G42A U56A A60U C76A C96A U102G U127A G141U A150G | ≤ -4.2 |
| A60U C85A U101A A119G U127C | ≤ -4.2 |
| C85U U145G | -2 |
| C5U G74A A91U C93G | ≤ -4.2 |
| A29G A47C U55G | ≤ -4.2 |
| A12C A20G G25A A30G U44A A89G U145G | ≤ -4.2 |
| G59A G124U C125G G136U U139A U146A | ≤ -4.2 |
| A17U U56G C125G | -1.81 |
| A52C G67C A89C A106G A107G | ≤ -4.2 |

| Variant | polymerase ribozyme fitness (log ratio) |
| --- | --- |
| A37G A39U G50A A142U | ≤ -4.2 |
| C8G A30G C35U G65U G94U U135C U144G | ≤ -4.2 |
| G141C A150G | -3.78 |
| A22U C54U G92U A147U | 0.944 |
| A26G U33C C85U | ≤ -4.2 |
| A28C U55A C75G | ≤ -4.2 |
| U6A A22G C125U | -0.424 |
| A60U C69A | -0.294 |
| A137U G141A | -3.24 |
| A30U G42A U55G C69A G126U A142C | ≤ -4.2 |
| C79G A122C G140A | ≤ -4.2 |
| A41G C76U G86A G117A | -0.646 |
| U4A A17G C35A G59C U135A | ≤ -4.2 |
| U55A C87G C149G | ≤ -4.2 |
| C69U C76U A97U U109G G112C C125A | ≤ -4.2 |
| C57U G92C A97C U145A | 0.369 |
| U4C A12G U31G G94C A121G | -0.0351 |
| A40G G48C A49C | ≤ -4.2 |
| G25U A49G G59U C99A | ≤ -4.2 |
| A26C G117C | -2.51 |
| A40G C95A U104G A142G | -3.8 |

| Variant | polymerase ribozyme fitness (log ratio) |
| --- | --- |
| C14G A24C | -3.63 |
| C38U C96G | -1.09 |
| C38G G42U G68A U77A C96U G141U | ≤ -4.2 |
| C10A G42C U44A U53A C85A A122C | ≤ -4.2 |
| A41G A52G C87U U144G U148G | -3.95 |
| C76U C96U A97G C99U C103G | ≤ -4.2 |
| C85A U127A | -3.68 |
| C10G G11U U15C G84A G88U | ≤ -4.2 |
| A24U C76G A138G | ≤ -4.2 |
| C18G A19C G88A G92U C95U U134A | -4.03 |
| A66C G71C G84U | ≤ -4.2 |
| G46C G86A | -1.59 |
| C14U A40G U56A G59C C76U A121U | -4.02 |
| A22C G58C G70U U134C | -3.68 |
| C5A A110C | ≤ -4.2 |
| A37U U56A C99U G143U | -3.88 |
| U56A U127A A138C A142G | -3.48 |
| A20C G42C G50U G84A C99A | ≤ -4.2 |
| C76U C87G | -3.96 |
| C51U G141C | -0.423 |

Source: the RNAGym collection of RNA variant scans (doi:10.1073/pnas.2313332121)
